Assay: protease stability score; higher = more stable; yeast display proteolysis, trypsin and chymotrypsin;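 note: relative to predicted unfolded state with 0 unfolded-like and 1 meaning tenfold more protease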

Compared with “SEEEKMVEYAIRLIDSLIRTGDERVLMSLLDPHAKMDVNGKDLIGREFLKHWTHQYKNVKLRDIKVKDAEVQGDKIRIHVELEIEFNGRRDSRDETWYIDKFDGRWLVEEIRVK”, “DENEQEARKAIEELIHNRETGDEQRMSELLDPHTRIDYNGVEVHGRHYLLKLLRRIDHSRFNLRRLDIQGEKIIMEGELELDVNGVKIRIKLTEIILKVNGRWILHSSRIE” is higher in protease stability score: 1.15 for the first, 1.95 for the second.

Compared with “DEERHHFERVYEELMHVRRTGDWERYWELLDPDARLEINGQKYHGREDVLKAVTDIMRHWREKEFDFKRMDVQGDKVKIEGRVNGNFNGRDINTDVEIQITVVDGRLRHERFIIK”, “SEEDKHLRKMAQDILEWLFTGNWKDFFDNLDPNYRVEWNGKERIGRDLTRRMLETIRREMRLHDIKIHHFTAIDGVIHIDGSEYIHVDGVTTEVKTHIHIVIFNGRIKRIEFHDH” is lower in protease stability score: 1.71 for the first, 1.48 for the second.

Compared with “SEDEEYIRELMKLIAQITQTGDEELFRRLVDPHTRLVQGDKQYHGWHAFRVFLEEMRIKSVRVEVRRIEIQGEYVHVDTHWQLHVHYNGRDIDLHIDVRNIVHKVNGRWIIRHIHVE”, “EEEEKEIKDLLREIFEMIVTGDWRLIRENMDPNARMEVGDKEVHGRDHVIHHLHNLGFKHIKEKDINVQGEKISIHGHVDVNGRSRHVDFIAHKVNGKWLYKSFHFH” is lower in protease stability score: 0.986 for the first, 0.826 for the second.

First: DERDERLTEFLELYFKLWFTGDEDTFAHLADPNTRSVFNGKWIHGMESYSEWVEKHMRHLRFKDMKIRDSRVVDGQIHMNTEVEGEVNGQRYRVETRIILDVIDGRIKEVRLHIH
Second: DEKNHLWDEISEIFVQNWVTGDEDSLRHMADPNVRTDINGVELHGMEETNRFIIEELKHARSRVHLEHRDAVNGRIHLQTELYSNVDGQEIRYKTRIILIVVNGRLKEIKFIQH
The protease stability score of the first is higher: 1.24 for the first, 0.581 for the second.

Compared with “DEDEEQAEKMIKIWIHDMATGNEESLVRLADPRVRSEVDGVQLHGRESLRKFLHDEWRDLGVDRIQVHVRRYHVFDGRLHLDGEVIVNGQDKTMHIVLIKVDGRWHLKSVHFR”, “DSEEKWDREFVKDFVHNEKTGDEERLKELMDPHAILLIDINGREIRHHGREAMTEEVDRFLKHAGVDHMDIHDVKIQGDKVRVDIRIEIGDKRQKSHIIIEKINGQWRVTQIHIHVE” is lower in protease stability score: 2.14 for the first, 0.989 for the second.

Going from “DEDEHDVRELIELVLQVERTGNWKIFERLADPNVRLNIDGQEFHGREEALKLREDLLHHWGVDNIEVTLEDVTFQGDKVNSHFTSQFNGREFELIVIIMKIDGKWFLHQIQVHER” to “SEDETEEHKFHNILSHAWETGDEEVLERLADPHVRFFYNGKEQVGRELMVELLRELLKRLGVDRIEIEIKDVRLQGDKARWHGDNVFNGRRVHVHISLVKVNGRWRIHHLDMG”, the protease stability score rises from 1.19 to 1.31.

First: NEEEDINHHIVELFFHLLHTGDWEELEKLADPHARLEINGRRFHGRENVVTQLWELLHRIDHVEIRDLRVQGDKVHVDTRLRIGDKEKKTEWDIVVVNGKIKRSRVRVH
Second: REEEEHAHRIFEILVRLWLTGDEDTYLNLADPHDLIEIDQGDKRDENHGRESAFHLWEWFLREMRIKRMILRDERVQGEKLEFDVEVRGNINGVDLRFRVHIIIVVINGRFKSSKVILN
The protease stability score of the first is higher: 2.02 for the first, 0.759 for the second.

Going from “NEKEELLRKIMDMLIRHWETGDFEKLMELADPNVRLHYEQGDKEHHHHGREDVAKFIEELLRMLGVDHWHLEKIEIVGEKLHLHGRIHVNGRTIDLRIHWVVVNGVLKSVRIILG” to “SEEEESSEDATKLILRLWKTGDEHEWEHLFDPNVKVHIGDKHYVGMEIAVNTLHMLLRELGIDHIRLRDVKIFNGKVIIVFKIEVNGREFETHIISEKVNGRWRIKSVRFE”, the protease stability score rises from 1.14 to 1.39.

Going from “SEEEEELKKFLDIFLRALRTGDFDESLRLMDPRYRSIVGDKRHIGMENLYRWLTEMRIERVHFELDSFRIQGNKLEIDIRNDVDGQIDGKQFRIEFEVHIHMEKYNGKWVVHVLEIR” to “HEDEQLAREFVEHLTENLRTGNEERIAELADPHVRVDIGDKHLHGWEWLRRRVRELRFHDLIIHHVEVIDGRIIFRGRMDGRVNGRHTQTEVRVELDKIDGRWTIRHIEIR”, the protease stability score rises from 0.932 to 2.01.

First: DEDDELYKRVFELIEHDNHTGNEKSHLELADPHARLLYDGKLVIGRELLLEWMRRLGIDVIRHMDFKRFRIQGDKIEMDVRVHGEVNGRHIDTDTHLIARKVNGRWLLEEIRIK
Second: DEQEKHLKKISEDLLRIWLTGDEDTFREMADPDMRFIDEDHELHGREELIRMMREFWHKFKNARIEIHHVEVIGEYNNVDIRLSVDGRVVDVKLHFLIVNGRLKKVEVRER
The protease stability score of the first is lower: 0.937 for the first, 2.07 for the second.

Going from “EEERETDHRLTEKLRRIIRTGDEEEWSKLVDPNTRVIYGDKQDHGWEAWVRILKDLGAKHIDIEHVDIVNGRVEIHSHLTIGDKHVIIHHRIVHINGKLTEIYIEIHHK” to “SEEERHWKEFIRMMFEALKTGDETELEKNIDPNVRVHINGQELHGRETASRFMQKHEEDMGFKHFHIDHIHFQGDKIHVHGILWVNGRDIEIHIHLVIVNGRVSLVSRDIREH”, the protease stability score falls from 0.694 to 0.247.

Compared with “DEEEKEAVRHWELFMKAELTGDEEKLKNLADPNTRILFNGVEQIGWEELIRKLREIRIKLHDYRVHQVDRIDGRVILDFRVDIILYVGDKFFKHEIRVHVFILKYDGKWILEYEEIK”, “EEDEEHIRKVIETFREMSETGDEDWSERMADPNARLIVGNKEFHGRERFNEWNRELTERIDHFEVRIRDFEIQGDKLILHVRITIIINGKDIETESHIIMKKVDGRWFMHSLHHK” is higher in protease stability score: 0.736 for the first, 0.752 for the second.

First: SDHRRLLEELLKIIIKAMMTGDESTLERMFDPNVRINIDGVDDHGWESFDRMFHELRIDHARVEYIDVVNGRARVHTNFEVHFDGRRIHWETEIVVVIVNGRNREVSIIRH
Second: DEEERLWHEFLEEFLRYIITGNWKKIADLADPNVRYQQGEKTNIGREDFERHFEKTYNDLGVDHFEIDHVDIQGNKIEIHLWLRVNGQEHKIHIDVKVVNGRIKYVRIEYE
The protease stability score of the first is lower: 0.739 for the first, 1.5 for the second.

Compared with “DDREEELQHLMELILFLLVTGNEEIWMRMADPDVKSRISIGDKQETYHGRETVARYMIHERHFYKNIQVKFDDVQVQGDKVIVILTFHWNGREIEVIHTFIVINGKLTSWEVRFIHR”, “DEEDHLMKHASEMFLHVMKTGDEDTLRRLVDPHVRLDWNGRKWHGRETVTRIIVENIHELGIDHIHLNHFEIYNGQADTNIEVRYNGKREEYHIHMHKVNGRWTVKSIHVTEE” is higher in protease stability score: 1.42 for the first, 1.5 for the second.

First: DEEEKAHEHMLRVLLHLERTGNEKALTEMADPNVRIDWNGKEDHGMEHLLRHLREIRIKNFELTDERHQGDKIELRGRLHGFIGDKHIILEVELVWRKVNGRWQLTSMHIK
Second: DEEEKEATHYLELFWKLKETGDWDELHRLLDPNVRLRINGKDVHGMERVTEEHLKRMKEIRIRHYHLDELRVQGDFVHIDVRVNGEIDGKRNMIEFHFHARKVDGRWFLHEVRIR
The protease stability score of the first is lower: 1.45 for the first, 1.79 for the second.

Compared with “SEDERDIREAFKRWVHNVETGDFESLLKLFDPNVKTTIDGREYHGRDFLVRRLSEMRVHHIEIEHFDIQGDKVNVRGRMDGQIGDKRQDVHFVIHMVKINGRWLLTELTEK”, “EEEKDWSTEVLRLFLEMMATGDWEFLARFLDPHVKLEVDGREFHGREEVSRSLEEHFRKFGADHVEIRLRRIREVDGRLHVDGRLILHIGDKTIERDMQVHSYKIDGQWSIHEVTHK” is lower in protease stability score: 2.23 for the first, 1.45 for the second.

Compared with “SEEEEFTKLLLELLAHALRTGDESMLQYLADPNVRIDINGKELHGMEVLTHWLRRIDHIDSFFHIDHIDLVDGKLKVNGRTELIVRQGDKSHHSEWDVRIISDKVNGRWLLESISFK”, “DEWDEHLEHVAKLIIELLLTGDEETLSRLADPHTRLEWNGRETHGRENMQETLIKILKEIWIHDIRIRHVRTQGDKAHVEGEQDGIINGVRRILDVRILIVVFNGRLRSLRFQID” is lower in protease stability score: 2.08 for the first, 0.693 for the second.

Compared with “DETEDTSRHLLELFAHALRTGDEESSDRLLDPHVRIDINGKELIGRERFRELWEEMRIEWVKIRDVSIINGQVHVNGEMLMVYDGRTYTIETRIIILKVDGRWVIEHMKIG”, “SEDTATAHLMVEYFTKSVHTGDEHTTKRQVDPTMRFDFNGKQIIGREKWKEDLLHWRMETTSHVDDFKLQGDKVRSRTTLHMILHFDGVVYHNTYDTEIIYHKVDGRWYFTEFHVR” is lower in protease stability score: 1.43 for the first, 1.14 for the second.

First: HEEEEIERIAYNIYEYVRKTGDERVMTEMADPDARLIYGDKELVGREHMVQFLRWLLEQYKNVQLHIEHVEMIGDFVKIQSNLNVNGRTIEVELILLKYNGKWRIRSSVFK
Second: SEDEEIVRHFLEIWIKILKTGDWHSMERLVDPHAKYENEHEVDHGRDSARRFVDELRVTEFRVESVKTQGDKATVHTRMVVHFNGKRIDTETRLHIHKVDGRWVVEIIIVN
The protease stability score of the first is lower: 1.07 for the first, 1.43 for the second.

First: DEDKEILHKMVEILRHALQTGDEDRLSEMFDPNVRLEINGREEWGREIFRDKHRQLGVDHLHIIIRRVHIQGEYAHIDTEYRIHVNGKTLETRVEVIALKIDGKWLIRQVIFT
Second: SEDTRLKEEFLRRVLESEHTGDFESLQEMLDPNTRIEFNGQELIGREEAERILHQARIHDVKIKSMRLIDGRIELNGVLDGNFNGRRRHLEVRIYITKIDGRWVLESIEIE
The protease stability score of the first is lower: 1.14 for the first, 1.49 for the second.

Going from “DEIHQFIEHMTKLLITALYTGDERMLEELADPHVKLDIGDKHSVGRENFVEMMKWLADHIRVRHTDIHDLKIYGEKTRVDMRVDGEVDGQRVEYRVEIFLFVVDGRLKRSSVHFK” to “DDEDRHASKLYHIIVHLEVTGDFEKWRDYADPNVRIVIGDKEFHGRELFMEWLKEIRLERFRIKHIKVIGEKTNSTTSFEVNVNGVRIENDTRIHIHVIDGKVHSVHFEIR”, the protease stability score rises from 1.09 to 1.57.

Going from “DEREQEAHRAIEKFMHYVRTGNEDKLKEFLDPNALNLFDGRHDVGREDVTESMIEIMRHLGVTLHDVKITDMRTQGDYLTVNGWFNLEYDGVRDNHKVFIHSRKVDGKWIITKIDWR” to “SEEEIMTKLAEKILKMHWDTGDERIRKELADPHVRIDQGDFNLHGWEVLHLTLNLLGVTKFRLHILEIHDVSMQGDKIEMDIEVHMHVNGRKISFRVQVHSIKIDGKWKQHSLIIH”, the protease stability score falls from 1.26 to 0.153.

Going from “SEDHEISRRMLEMVLDSFDTGDEHIYKDLADPHAKIEVNGKDIHGWDTWASEMVERTERVPGVRKEIHIRDIKSQGDKIEIRGEVIIDFNGKTIRYRVLFVIEKINGRWFIKSEHIK” to “SEREQTVRHWVELLIHLLITGDEETLVHLLDPHARADIDGVEMHGRKTTEFWLKLFPHIKIELRRVEIQGEKVHMDTTMIQGEKERSTRIHLDVINGRIKRHSYEIE”, the protease stability score falls from 1.04 to 0.262.

Going from “SEDAKLTEELFREWLTIMLTGDWEQSLRRIDPHARLIIDGRHFHGREEFSKVVKELRFKDMIDRRIHVDENEVFVDVELRGVINGREVTIKTHILIVVIDGVIHSIEIRNR” to “SEDERFWVERLEEVLRAILTGDEDRIRELADPDVRVRYGDKELHGWKDLHEFMEFFKNVRINVRHVRNQGDKQEVDSEFTFEGRRHETELRLVVINGRVRHIEIIIR”, the protease stability score rises from 1.29 to 1.41.

Going from “SEKEEDITRFITMWARYLVTGDEDRSRELLDPSVKMHIGEKNLIGREKLLEFVHRMWRRVDHIHIHFHTIDIQGDKLKVDFEIELRQGDKSDSIRTSMIVDKVDGRWILHKITME” to “DEDRESMLEHFRLLVEQTKTGNEESTEENIDPHVRLIFNGQEYHGRHEVARYLVEIWRRVDHVRIHLTHMEVYDGVMEIHGQYHLDFDGRHVTHEFRIIFTKVDGRWRIHELRVQ”, the protease stability score falls from 1.74 to 1.38.

Reference: the NTF2 design screens of Basanta et al. (2020)
